# Paper PMC2213684, “Altering coenzyme specificity of Pichia stipitis xylose reductase by the semi-rational approach CASTing” (Microbial Cell Factories, 2007)
# Numbering of substitutions follows the chain as printed. In names and notes the source's numbering stands.
# B1: PsXR (wild-type NT-XR), Pichia stipitis xylose reductase (Scheffersomyces stipitis CBS 6054) (protein)
# chain: MPSIKLNSGYDMPAVGFGCWKVDVDTCSEQIYRAIKTGYRLFDGAEDYANEKLVGAGVKKAIDEGIVKREDLFLTSKLWNNYHHPDNVEKALNRTLSDLQVDYVDLFLIHFPVTFKFVPLEEKYPPGFYCGKGDNFDYEDVPILETWKALEKLVKAGKIRSIGVSNFPGALLLDLLRGATIKPSVLQVEHHPYLQQPRLIEFAQSRGIAVTAYSSFGPQSFVELNQGRALNTSPLFENETIKAIAAKHGKSPAQVLLRWSSQRGIAIIPKSNTVPRLLENKDVNSFDLDEQDFADIAKLDINLRFNDPWDWDKIPIFV
# B2: PsXR (wild-type NT-XR), Pichia stipitis xylose reductase (Scheffersomyces stipitis CBS 6054; K270S/N272P) (protein)
# chain: B1 chain with K270S, N272P
# B3: PsXR (wild-type NT-XR), Pichia stipitis xylose reductase (Scheffersomyces stipitis CBS 6054; K270S/N272P/R276F/S271G) (protein)
# chain: B1 chain with K270S, S271G, N272P, R276F
# B4: PsXR (wild-type NT-XR), Pichia stipitis xylose reductase (Scheffersomyces stipitis CBS 6054; K270R/N272D) (protein)
# chain: B1 chain with K270R, N272D
# What was measured:
# purified protein [1] = substrate: NC(=O)C1=CN([C@@H]2O[C@H](COP(=O)(O)OP(=O)(O)OC[C@H]3O[C@@H](n4cnc5c(N)ncnc54)[C@H](OP(=O)(O)O)[C@@H]3O)[C@@H](O)[C@H]2O)C=CC1; test: purified protein; format: biochemical, Scheffersomyces stipitis; conditions: 50 mM potassium phosphate pH 6.0
# purified protein [2] = substrate: NC(=O)C1=CN([C@@H]2O[C@H](COP(=O)(O)OP(=O)(O)OC[C@H]3O[C@@H](n4cnc5c(N)ncnc54)[C@H](O)[C@@H]3O)[C@@H](O)[C@H]2O)C=CC1; test: purified protein; format: biochemical, Scheffersomyces stipitis; conditions: 50 mM potassium phosphate pH 6.0
# [3] = mutant NT-K270R/N272D, 0.5 M xylose
protein,measurement,setting,value
B1,Km,purified protein [1]; 0.5 M xylose,6.2 ± 1.4 µM
same,kcat,purified protein [1]; 0.5 M xylose,27.5 ± 3.28 s⁻¹
same,kcat/Km,purified protein [1]; 0.5 M xylose,4.65e+06 ± 938000 M⁻¹ s⁻¹
same,Km,purified protein [2]; 0.5 M xylose,10.6 ± 0.6 µM
same,kcat,purified protein [2]; 0.5 M xylose,15.4 ± 0.583 s⁻¹
same,kcat/Km,purified protein [2]; 0.5 M xylose,1.46e+06 ± 112000 M⁻¹ s⁻¹
B2,Km,"purified protein [1]; mutant 1-2F7, 0.5 M xylose",849 ± 45 µM
same,kcat,"purified protein [1]; mutant 1-2F7, 0.5 M xylose",35.2 ± 3.93 s⁻¹
same,kcat/Km,"purified protein [1]; mutant 1-2F7, 0.5 M xylose",41700 ± 5000 M⁻¹ s⁻¹
same,Km,"purified protein [2]; mutant 1-2F7, 0.5 M xylose",512 ± 22 µM
same,kcat,"purified protein [2]; mutant 1-2F7, 0.5 M xylose",18.5 ± 1.3 s⁻¹
same,kcat/Km,"purified protein [2]; mutant 1-2F7, 0.5 M xylose",36300 ± 2520 M⁻¹ s⁻¹
B3,Km,"purified protein [1]; mutant 2-2C12, 0.5 M xylose",427 ± 17 µM
same,kcat,"purified protein [1]; mutant 2-2C12, 0.5 M xylose",2.63 ± 0.15 s⁻¹
same,kcat/Km,"purified protein [1]; mutant 2-2C12, 0.5 M xylose",6170 ± 317 M⁻¹ s⁻¹
same,Km,"purified protein [2]; mutant 2-2C12, 0.5 M xylose",147 ± 12 µM
same,kcat,"purified protein [2]; mutant 2-2C12, 0.5 M xylose",12 ± 0.95 s⁻¹
same,kcat/Km,"purified protein [2]; mutant 2-2C12, 0.5 M xylose",81700 ± 5250 M⁻¹ s⁻¹
B4,Km,purified protein [1]; [3],142 ± 31 µM
same,kcat,purified protein [1]; [3],15.9 ± 3.38 s⁻¹
same,kcat/Km,purified protein [1]; [3],107000 ± 24800 M⁻¹ s⁻¹
same,Km,purified protein [2]; [3],58 ± 9 µM
same,kcat,purified protein [2]; [3],17.9 ± 2.07 s⁻¹
same,kcat/Km,purified protein [2]; [3],313000 ± 40000 M⁻¹ s⁻¹
